T1: ArcR-His6 (Staphylococcus aureus TZ0912) (UniProt Q2FUY1)
T1 sequence: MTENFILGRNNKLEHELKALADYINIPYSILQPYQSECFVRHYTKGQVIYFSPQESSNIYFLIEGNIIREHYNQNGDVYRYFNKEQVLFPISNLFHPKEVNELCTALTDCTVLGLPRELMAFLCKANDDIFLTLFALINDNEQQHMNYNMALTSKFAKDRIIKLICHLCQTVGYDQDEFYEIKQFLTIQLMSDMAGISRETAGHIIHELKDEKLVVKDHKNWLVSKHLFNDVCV

T2: ArcR-His6 (Staphylococcus aureus TZ0912, UniProt Q2FUY1 1-234)
T2 sequence: T1 sequence

T3: AgrA-His6 (Staphylococcus aureus TZ0912, UniProt Q5HEG2 1-238)
T3 sequence: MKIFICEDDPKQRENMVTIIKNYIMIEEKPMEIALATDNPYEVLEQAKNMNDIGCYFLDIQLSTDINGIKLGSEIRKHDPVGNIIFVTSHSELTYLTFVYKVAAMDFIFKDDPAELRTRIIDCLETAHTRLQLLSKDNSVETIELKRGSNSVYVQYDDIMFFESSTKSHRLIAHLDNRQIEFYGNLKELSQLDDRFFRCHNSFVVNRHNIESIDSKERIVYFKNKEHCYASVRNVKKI

B1: Pcas-133-118 (Table S2: -152-137) (dsDNA)
DNA 1: TGTGAAGTTATTAGTA
DNA 2: TACTAATAACTTCACA
B2: Pcas-132-113 (Table S2: -151-132) (dsDNA)
DNA 1: GTGAAGTTATTAGTAAACTT
DNA 2: AAGTTTACTAATAACTTCAC
B3: agr P2 promoter (dsDNA)
DNA 1: TACATTTAACAGTTAAGTATTTATTTCCTACAGTTAGGCAATATAATG
DNA 2: CATTATATTGCCTAACTGTAGGAAATAAATACTTAACTGTTAAATGTA
B4: Pcrispr1-26+24 (dsDNA)
DNA 1: CTTAATATATAGAAAATTATCATAATATTTGTCAAAAAAAGTGACATTTC
DNA 2: GAAATGTCACTTTTTTTGACAAATATTATGATAATTTTCTATATATTAAG
B5: Pcas-137-108 (Table S2: -156-127) (dsDNA)
DNA 1: AGAATGTGAAGTTATTAGTAAACTTAGCAA
DNA 2: TTGCTAAGTTTACTAATAACTTCACATTCT
B6: Pcas-142-103 (Table S2: -161-122) (dsDNA)
DNA 1: TAATGAGAATGTGAAGTTATTAGTAAACTTAGCAAAAGAT
DNA 2: ATCTTTTGCTAAGTTTACTAATAACTTCACATTCTCATTA
B7: Pcrispr1+4+20 (dsDNA)
DNA 1: TGTCAAAAAAAGTGACA
DNA 2: TGTCACTTTTTTTGACA

Tests used:
[1] = target: T1, ArcR-His6 (Staphylococcus aureus TZ0912); test: EMSA; settings: EMSA: 750 mM NaCl, 50 mM Tris-HCl pH 7.4, 0.5 mM DTT, 0.5 mM EDTA (as printed for binding buffer), 20 ng probe in 20 uL, 30 min 37 C; 6% gel, 0.5x TBE
ArcR-His6 [2] = target: T2, ArcR-His6; test: EMSA; EMSA: 750 mM NaCl, 50 mM Tris-HCl pH 7.4, 0.5 mM DTT, 0.5 mM EDTA (as printed for binding buffer), 20 ng probe in 20 uL, 30 min 37 C; 6% gel, 0.5x TBE; settings: protein: recombinant; tags: His6 (pET28a NdeI/XhoI); chain copies: 2; label: 5'-FAM; blunt
ArcR-His6 [3] = target: T2, ArcR-His6; test: EMSA; 7.2 uM; EMSA: 750 mM NaCl, 50 mM Tris-HCl pH 7.4, 0.5 mM DTT, 0.5 mM EDTA (as printed for binding buffer), 20 ng probe in 20 uL, 30 min 37 C; 6% gel, 0.5x TBE; settings: protein: recombinant; tags: His6 (pET28a NdeI/XhoI); chain copies: 2; label: 5'-FAM; blunt
AgrA-His6 = target: T3, AgrA-His6; test: EMSA; shift from 0.25 uM; EMSA: 750 mM NaCl, 50 mM Tris-HCl pH 7.4, 0.5 mM DTT, 0.5 mM EDTA (as printed for binding buffer), 20 ng probe in 20 uL, 30 min 37 C; 6% gel, 0.5x TBE; settings: protein: recombinant; tags: His6 (pET28a NdeI/XhoI); chain copies: 2; label: 5'-FAM; blunt

Row | Molecule | binding [1] | binding result (ArcR-His6 [3]) | also measured
1 | GGGAGAACTAGAGATAGAATTTGGAAAAAGATTGTTGTAAATAAAATTATTAATCAATCAAAATGTTTAGAAAACAATTTACATAATGAGAATGTGAAGTTAT (double strand) [Pcas-222-123 (Table S2: -241-142)] | no binding | – | –
2 | CATATATAATAAGTATTTAATTTTAATATATTTAAACTAATAATAATCAAATATACACTATTAACTGAAGATTTCATTGACTTGACATTTATTAAACTTT (double strand) [Pcrispr1-276-177] | no binding | – | –
3 | ATATAGTAGCATGGTGTTAGTTGTCACAGTTTTTGACAGCCAAAATAACACTTGAACCTTTGTGGTTATGCTATTTATTAAAGTATCT (double strand) [Pcrispr1+25+112] | no binding | – | –
4 | B1 | – | – | binding result (ArcR-His6 [2]): no binding
5 | B2 | – | no binding | –
6 | B3 | – | – | binding result (AgrA-His6): binds
7 | B4 | – | binds | –
8 | B5 | – | binds | –
9 | B6 | – | binds | –
10 | B7 | – | – | binding result (ArcR-His6 [2]): no binding
